In publication PMC7380208:

Target: Flt3 Receptor Interacting Lectin (FRIL) from Lablab purpureus (Lablab purpureus) (UniProt Q9ZTA9)
Test: SEC-MALS

Substance: Flt3 Receptor Interacting Lectin (FRIL) from Lablab purpureus (from UniProt Q9ZTA9) (natural protein)
- stoichiometry N: 4
